Data on 12 molecules can be found in patent US20090155239A1, “Novel Protease, Microorganism Producing the Same, and Application Thereof” (SODX CO., LTD., priority 2005, published 2009).

Data set [1] relates to protease of the present invention. Format: biochemical, Fusarium sp. strain BLB. Particulars: for Relative Activity (%): pH 5.
The conditions of data set [2]: substrate Suc-Ala-Ala-Pro-Phe-pNA; H-D-Ile-Pro-Arg-pNA taken as 100.
Data set [3] has as its system mice. Put plainly: Acute toxicity test on mice.
The conditions of data set [4]: substrate H-D-Val-Leu-Lys-pNA; H-D-Ile-Pro-Arg-pNA taken as 100.
The conditions of data set [5]: substrate Gle-Phe-pNA; H-D-Ile-Pro-Arg-pNA taken as 100.
The conditions of data set [6]: substrate H-D-Ile-Pro-Arg-pNA, taken as 100.
The conditions of data set [7]: substrate Suc-Ala-Ala-Pro-Leu-pNA; H-D-Ile-Pro-Arg-pNA taken as 100.
In data set [8] the test system is fibrin. Nature of the data set: Fibrin plate method. Format: biochemical, bovine.
For data set [9], the system named is Hammarsten casein. Nature of the data set: Casein method. Format: biochemical. Particulars: final purified product of Example 2. As to the method: A 0.5 ml quantity of sample (protease solution) is added to 1.5 ml of Hammarsten casein solution, prepared using 100 mM boric acid buffer (pH 10) so as to have a final concentration of 1 wt. %, and a reaction is carried out at 37° C. for 10 minutes. The reaction is terminated by adding 2 ml of 0.44 M trichloroacetic acid solution. After allowing the reaction mixture to stand for 20 minutes, the precipitate is filtered off. Five milliliters of 0.44 M aqueous sodium carbonate solution and 1 ml of phenol reagent (containing, per 100 ml, 9.1 g of sodium tungstate dihydrate, 2.3 g of sodium molybdate dihydrate, 4.5 ml of phosphoric acid, 9.1 ml of hydrochloric acid, and 13.6 g of lithium sulfate) are added in that order. After allowing the resulting mixture to stand for 20 minutes, the absorbance at an absorption wavelength of 660 nm is measured. In the above measurement, the amount of enzyme that liberates, per minute, an acid-soluble protein hydrolysate corresponding to 1 μg of tyrosine is defined as 1 unit.

Data set [10] in a line: Synthetic substrate method, substrate specificity. Format: biochemical. Particulars: substrate Bz-L-Arg-pNA.

Like-named read-outs stand apart in the source and are kept apart here. Where a SMILES comes first, the peptide text is derived from it. [ ]: non-standard residue; d: D form. The star is where a group is joined. Sta = CC(C)C[C@H](N)[C@@H](O)CC(=O)O; Isovaleryl = CC(C)CC(=O)*

As for `c1ccc(-c2ccccn2)nc1` [2,2′-Bipyridyl], the “Relative Activity (%)” value in data set [1] is on record as 97%.

As for `CC(C)C[C@H](NC(=O)[C@H]1O[C@@H]1C(=O)O)C(=O)NCCCCN=C(N)N` [E-64, t-epoxysuccinyl-L-leucylamide(4-guanidino)butane], in data set [1], the “Relative Activity (%)” value stood at 97%. Consider `O=C(O)CN(CCN(CC(=O)O)CC(=O)O)CC(=O)O` [EDTA, ethylenediaminetetraacetic acid], for which, in [1], the “Relative Activity (%)” value was found to be 100%. For the molecule `O=S(=O)(F)Cc1ccccc1` [PMSF, phenylmethylsulfonyl fluoride], in [1], the “inhibition of the protease (in words)” value is recorded as “inhibited” and the “Relative Activity (%)” value was 59%. On to `CC(C)CC(=O)N[C@H](C(=O)N[C@H](C(=O)N[C@@H](CC(C)C)[C@@H](O)CC(=O)N[C@@H](C)C(=O)N[C@@H](CC(C)C)[C@@H](O)CC(=O)O)C(C)C)C(C)C` [Pepstatin] (Isovaleryl-VV[Sta]A[Sta]-OH), for which the “Relative Activity (%)” value in data set [1] amounted to 100%. With `c1cnc2c(c1)ccc1cccnc12` [Phenanthroline], the “Relative Activity (%)” value in data set [1] came out at 100%.

As to `NCCCCCC(=O)O` [ε-ACA, ε-aminocaproic acid], the “Relative Activity (%)” value in data set [1] was found to be 100%.

Chimostatin: the “Relative Activity (%)” value in data set [1] amounted to 100%.

Consider Streptomyces pepsin inhibitor [SPI], for which the “Relative Activity (%)” value in data set [1] is listed as 100%.

B1: protease of the present invention: novel trypsin-type serine protease from Fusarium sp. strain BLB, about 27000 on SDS-PAGE, amino acid sequence SEQ ID NO: 1 (protein, listed as Fusarium sp.)
chain: MVKFATIVALVAPLVAARPQDRPLIVGGTAASAGDFPFIVSISYQGGPWCGGTLLNANTVLTAAHCTSGRAASAFQVRAGSLNRNSGGVTSSVSSIRIHPSFSSSTLNNDVSILKLSTPIASSSTISYGRLAASGSDPAAGSSATVAGWGATAQGSPSSPVALRKVTIPIVSRATCRAQYGTSAITTNMFCAGLEEGGKDSCQGDSGGPIVDTSNTVIGIVSWGEGCAQPNFSGVYARVGTLRSYIDGQL
Take B1: the “Relative Activity (%)” value in data set [2] is recorded as 0%; in data set [4], 21%; in [5] it was 0%; in data set [6], 100%; in data set [7], 0%; in [10] (H-D-Ile-Pro-Arg-pNA taken as 100) it was 2.8%. Besides, the “safety in acute toxicity test” value in data set [3] is given as “demonstrated the safety”. In [8], the “fibrinolytic activity (in words)” value is “strong fibrinolytic activity”. The “protease activity by the casein method” value in data set [9] worked out at 634 U/mg. Moreover, the “degrading activity on synthetic substrate (in words)” value in [10] was “has degrading activity”.

B2: Streptomyces subtilisin inhibitor (protein)
chain: DAPSALYAPSALVLTVGKGVSATTAAPERAVTLTCAPGPSGTHPAAGSACADLAAVGGDLNALTRGEDVMCPMVYDPVLLTVDGVWQGKRVSYERVFSNECEMNAHGSSVFAF
In the case of B2, the “Relative Activity (%)” value in data set [1] came to 100%.

B3: soybean trypsin inhibitor (protein)
chain: DFVLDNEGNPLENGGTYYILSDITAFGGIRAAPTGNERCPLTVVQSRNELDKGIGTIISSPYRIRFIAEGHPLSLKFDSFAVIMLCVGIPTEWSVVEDLPEGPAVKIGENKDAMDGWFRLERVSDDEFNNYKLVFCPQQAEDDKCGDIGISIDHDDGTRRLVVSKNKPLVVQFQKLDKESL
Turning to B3, in data set [1], the “inhibition of the protease (in words)” value is “not inhibited” and the “Relative Activity (%)” value turned out to be 100%.
